Test results published in patent US10143747B2, “Breast cancer therapeutics” (IMBA—INSTITUT FÜR MOLEKULARE BIOTECHNOLOGIE GMBH, priority 2010, dated 2018).

Columns and labels:
[1] = tested on: mammary epithelial cells; assay: γ-irradiation induced mammary epithelial cell apoptosis in vivo (active Caspase 3); design: species or system mouse; settings: MPA pellet, 5 Gray
Protocol: (§1) a, Western blotting for phosphorylated (P) IKKα, total IKKα, phosphorylated (P) p65 NFκB, total p65 NFκB, phosphorylated (P) IκBα, and total IκBα in isolated primary mouse mammary gland epithelial cells (MECs) in response to RANKL stimulation (1 μg/ml). β-actin is shown as loading control. b, Western blotting for IKKα, IKKβ, IKKγ, phosphorylated (P) p65 NFκB, total p65 NFκB, phosphorylated (P) IκBα, and total IκBα in pooled late stage mammary adenocarconimas (n=4 for each lane) that developed in control, RANK^Δmam and IKKΔ^Δmam females. β-actin is shown as loading control c, Expression of RANK, CyclinD1, and p21 mRNA in late stage mammary adenocacinomas that developed in control, RANK^Δmam, and IKKα^Δmam females. Expression was determined by qRT-PCR. […] Apoptosis was detected by immunostaining for active Caspase 3. f, Apoptotic nuclei of epithelial cells (arrows) are shown for representative mammary gland sections. Magnifications×40. g, Quantification of mammary epithelial apoptosis. A minimum of 5000 nuclei was counted for each mouse. […]
For measurement of cell cycle arrest and apoptosis primary mouse mammary epithelial cells and SKBR3 human breast cancer cells were seeded at a cell-density of 100000 cells/well in a 6-well plate and allowed to grow for 24 hours. […] Cell cycle arrest and numbers of dead cells were determined using propidium iodine staining. […]

[2] = tested on: human SKBR3 breast cancer cells; assay: Soft-Agar Colony Formation Assay (anchorage-independent growth); assay type: cell-based; settings: RANKL 1 μg/ml
Protocol: as §1, with “qRT-PCR. Data are mean values+/−sem. n=4 per group. d, Soft-Agar Colony Formation Assay. Growth of human SKBR3 breast cancer cells in soft agar in response to stimulation with RANKL (1 μg/ml) or EGF (100 ng/ml). Anchorage-independent, macroscopic colonies formed after 18 days in culture with RANKL, which was prevented by the decoy receptor OPG (1 μg/ml).” for “qRT-PCR.”

[3] = tested on: SKBR3 human breast cancer cells; assay: DNA damage responses (cell cycle arrest, apoptosis) in SKBR3 cells; assay type: cell-based; settings: RANKL 1 μg/ml
Protocol: a, Western Blot analysis for γH2AX, phosphorylated (P) Chk1, total Chk1, p53 and β-actin in isolated primary mouse mammary gland epithelial cells in response to γ-irradiation (2 Gray) in the presence (1 μg/ml) or absence of RANKL stimulation. b,c, FACS analysis of propidium iodide (PI) stained b, mammary epithelial cells and c, SKBR3 human breast cancer cells after γ-irradiation (2 Gray) in the absence or presence (1 μg/ml) of RANKL. Data are representative of at least 3 experiments. Apoptotic cells with a DNA content <2n appear in the sub-G1 region. Percent of cells in sub-G1 (M1), G1-phase (M2), S/G2/M-phase (M3) as well as polyploid cells with a DNA content >4n are given for the indicated time points.
a,b, FACS analysis of a, mammary epithelial cells and b, SKBR3 human breast cancer cells incubated with the genotoxic agent doxorubicin (Dox, 1 μM) in the presence (1 μg/ml) or absence of RANKL. Data are representative of at least 3 experiments. Percent of cells in sub-G1 (M1), G1-phase (M2), S/G2/M-phase (M3) as well as polyploid cells with a DNA content >4n are given for 24 and 36 hours after doxorubicin treatment. c, mRNA expression of pro-apoptotic genes Bim, Puma, and Noxa 6 hours after γ-irradiation (2 Gray) in the presence (1 μg/ml) or absence of RANKL stimulation. Data are shown as fold change compared to control (+/−sem). n=3). *P<0.05; **P<0.005 (Student's t-test).
For measurement of cell cycle arrest and apoptosis primary mouse mammary epithelial cells and SKBR3 human breast cancer cells were seeded at a cell-density of 100000 cells/well in a 6-well plate and allowed to grow for 24 hours. Cells where then treated with doxorubicin (1 μM) or γ-irradiation (2 Gray) in the absence or presence of recombinant RANKL (1 μg/ml). Cell cycle arrest and numbers of dead cells were determined using propidium iodine staining. To determine in vivo mammary gland epithelial cell death, control and RANK^Δmam littermate females were γ-irradiated with a total dose of 5 Gray (Gy). Six hours later, mammary glands were isolated and immunostained for active Caspase 3 (Cell Signaling) indicative of apoptosis.

Row | Molecule | protective effect of MPA on γ-irradiation-induced cell death ([1]; RANKΔmam females) | γ-irradiation-induced apoptosis of mammary epithelial cells in vivo ([1]; control females) | growth of SKBR3 cells in soft agar [2] | early cell cycle arrest after DNA damage ([3]; doxorubicin 1 μM) | protection from cell death ([3]; doxorubicin 1 μM) | early cell cycle arrest after DNA damage ([3]; γ-irradiation 2 Gray) | protection from cell death ([3]; γ-irradiation 2 Gray)
1 | CC(=O)O[C@]1(C(C)=O)CC[C@H]2[C@@H]3C[C@H](C)C4=CC(=O)CC[C@]4(C)[C@H]3CC[C@@]21C [MPA, medroxyprogesterone acetate] | abrogated the protective effects of MPA | protected from γ-irradiation-induced apoptosis | – | – | – | – | –
2 | RANKL: recombinant RANKL protein, ligand of RANK, used as stimulus (1 μg/ml or 1 μg i.p.) (protein, UniProt O35235 139-316, looked up) Tumor necrosis factor ligand …: FSGAPAMMEGSWLDVAQRGKPEAQPFAHLTINAASIPSGSHKVTLSSWYHDRGWAKISNMTLSNGKLRVNQDGFYYLYANICFRHHETSGSVPTDYLQLMVYVVKTSIKIPSSHNLMKGGSTKNWSGNSEFHFYSINVGGFFKLRAGEEISIQVSNPSLLDPDQDATYFGAFKVQDID | – | – | induced growth of SKBR3 cells in soft agar | did not alter the early cell cycle arrest | marked protection from cell death | did not alter the early cell cycle arrest | marked protection from cell death
